Test results taken from patent publication US20080152587A1 (Amgen, published 2008).

Tests used:
[1] = molecular target: T1, soluble recombinant human uPAR/His6 (R&D Systems, Cat. # 807-UK-100) (human, UniProt Q03405 23-303); assay: limited antigen ELISA, uPAR coat 80 ng/mL, sample 1:25
T1 construct: range 1-303; Bought protein; also called soluble uPAR; hu-uPAR
Target sequence in this assay (Q03405 other isoform, or with tags, fused parts or gaps limits assumed, form in doubt): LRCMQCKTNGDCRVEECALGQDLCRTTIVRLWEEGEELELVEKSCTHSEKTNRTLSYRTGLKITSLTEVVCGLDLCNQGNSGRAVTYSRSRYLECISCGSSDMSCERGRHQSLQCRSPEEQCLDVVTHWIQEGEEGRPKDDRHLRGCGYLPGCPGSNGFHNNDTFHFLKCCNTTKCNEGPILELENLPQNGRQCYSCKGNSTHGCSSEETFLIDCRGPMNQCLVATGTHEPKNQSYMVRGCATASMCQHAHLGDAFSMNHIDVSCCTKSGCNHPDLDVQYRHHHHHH
Method: ELISA plates were coated with a lower amount ofuPAR in comparison with the High Antigen Quantitation assay described below (320, 160, 80, 40 and 20 ng/mL). Samples containing one concentration of antibody (Ab) (1:25 dilution) were incubated overnight to allow Ab binding to approach equilibrium.

[2] = molecular target: T1, soluble recombinant human uPAR/His6 …; assay: high resolution Biacore, mAb amine coupled, uPAR injected
Method: (§1) All mAbs were diluted into 10 mM sodium acetate, pH 4.0 for immobilization. […] All experiments were run at 23° C. with a flow rate of 100 μL/min. Serially diluted (2-fold) uPAR samples were randomly injected in triplicate for 90 seconds with several buffer injections interspersed for double referencing. A Biacore™ 2000 biosensor instrument was used for all high resolution experiments. Data were fit globally to a 1:1 interaction model with a term for mass transport included.

[3] = molecular target: T2, mouse uPAR on the surface of NCTC L929 cells (mouse, UniProt P35456 24-298); assay: FACS, NCTC L929 mouse cells, mAb 6.25 µg/ml
T2 construct: whole, on cells; also called cell surface mouse uPAR
T2 sequence (looked up): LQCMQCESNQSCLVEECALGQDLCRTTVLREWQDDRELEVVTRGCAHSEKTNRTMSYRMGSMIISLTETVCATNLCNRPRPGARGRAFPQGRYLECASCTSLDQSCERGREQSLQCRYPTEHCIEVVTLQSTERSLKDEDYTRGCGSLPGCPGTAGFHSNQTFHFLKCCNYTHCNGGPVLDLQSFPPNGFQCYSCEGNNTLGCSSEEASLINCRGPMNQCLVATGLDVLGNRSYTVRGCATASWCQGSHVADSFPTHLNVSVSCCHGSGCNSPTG
Method: To make the mouse cross-reactivity results conclusive, direct binding of the mAbs to cell-bound mouse uPAR was measured using FACS analysis. The mouse cell line derived from the connective tissue, NCTC L929, was employed for FACS analysis. The harvested cells were resuspended at 50,000 cells/well using FACS buffer into a V-bottom plate which was put on ice. […] After washing, Cy5-labeled goat anti-human IgG Fc at 5 μg/ml and 7AAD at 5 μg/ml was added. The mixtures were incubated for 15 min on ice, washed and resuspended in cold FACS buffer for FACS analysis.

[4] = molecular target: T1, soluble recombinant human uPAR/His6 …; assay: high resolution Biacore
Method: as §1

[5] = molecular target: T3, recombinant cynomolgus uPAR ECD with C-terminal His tag (cynomolgus monkey, UniProt Q9GK78 23-303); assay: KinExA, solution equilibrium, human uPAR beads capture free antibody
T3 construct: Used as conditioned medium of transfected HEK293 cells
Method: Kinetic measurements of several of the antibodies were evaluated using the KinExA® method. This method involves solution-based determination of formal affinity measurements at equilibrium. […] The remaining active groups on the beads were blocked with 10 mg/ml BSA in 1 M Tris and stored in the blocking solution as recommended by the manufacturer. KinExA experiments were performed using an automated flow immunoassay system, KinExA 3000, in which beads coupled with human uPAR served as the solid phase.
The mixture was drawn through the human uPAR-coupled beads to accumulate unbound antibody. The captured antibody was detected using solutions containing a Cy5-conjugated goat anti-human IgG heavy and light chain specific secondary antibody in sample buffer. […] Three replicates of each sample were measured for all equilibrium experiments. The equilibrium dissociation constant (KD) was obtained from nonlinear regression analysis of the data using a one-site homogeneous binding model with an unknown ligand concentration contained within the KinExA software.

[6] = molecular target: T1, soluble recombinant human uPAR/His6 …; assay: low resolution Biacore
Method: (§2) A high-density goat anti-human antibody surface over a CM5 Biacore™ chip was prepared using routine amine coupling. […] Each mAb was captured on a separate flow cell using a 30-second contact time at 10 μL/min followed by a 5-minute wash at a 100 μL/min flow rate for stabilization of the mAb baseline. […] All antigen samples were prepared in the running buffer.

[7] = molecular target: T4, human urokinase-type plasminogen activator receptor (uPAR, CD87), cell-bound (human, UniProt Q03405 23-305); assay: FACS, B300.19 cells expressing human uPAR, anti-human gamma Cy5
T4 construct: whole, on cells; On B300.19 or L929 transfectants (full length cDNA), or native on U937 and PC-3 cells
Target sequence in this assay (Q03405 23-305): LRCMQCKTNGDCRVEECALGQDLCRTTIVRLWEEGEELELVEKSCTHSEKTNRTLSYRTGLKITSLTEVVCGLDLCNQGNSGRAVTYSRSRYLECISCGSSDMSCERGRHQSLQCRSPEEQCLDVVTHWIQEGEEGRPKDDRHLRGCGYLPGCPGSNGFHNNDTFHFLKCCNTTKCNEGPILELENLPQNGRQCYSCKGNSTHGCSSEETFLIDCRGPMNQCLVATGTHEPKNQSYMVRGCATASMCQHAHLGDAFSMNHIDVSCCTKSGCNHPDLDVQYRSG

[8] = molecular target: T4, human urokinase-type plasminogen …; assay: FACS competition, FITC-tc-uPA on L929 cells expressing human uPAR, supernatant 1:2
Target sequence in this assay (Q03405 23-305): as above
From the text: Briefly, murine fibroblast L929 cells (ATCC) were transfected to express human uPAR.

[9] = molecular target: T1, soluble recombinant human uPAR/His6 …; assay: low resolution Biacore, mAb captured by goat anti-human, hu-uPAR 312 nM;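 also: surface plasmon resonance on a CM5 chip with goat anti-human antibody surface made by amine coupling, each mAb from supernatant captured per flow cell, kinetics fitted including mass transport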
Method: as §2
A mass transport coefficient was used in fitting the data.

[10] = molecular target: T4, human urokinase-type plasminogen …; assay: FACS, U937 cells, mAb 5 µg/ml on ice, alexa647 goat anti-human F(ab), not stripped
Method: A cell suspension containing 100,000 cells was pipetted into each well of a V-bottom plates in duplicate. Two V-bottom plates were prepared, one to be kept at 37° C. during internalization with antibody complex, and the other to be incubated at 4° C. Each of the eight uPAR mAbs was incubated with U937 cells at 5 μg/ml on ice for 15 min. Incubation on ice was necessary to prevent internalization of the primary mAbs. The cells were then washed with cold FACS buffer. Cells were subsequently incubated on ice in 100 μl of 5 μg/ml alexa647-labelled goat anti-humanF(ab) (Invitrogen catalogue number A21249) in cold FACS buffer for 15 min. This allowed the goat FAB bind to the bound uPAR mAbs without permitting any internalization. After a 15 minute incubation on ice, one plate was kept on ice, while the other plate was incubated at 37° C. for 1 hour.
Following the 1 hr incubation with the mAb-FAB complex, the cells were washed twice with cold 5% FACS buffer, and 200 μl of Tris(2-carboxyethyl)phosphine HCl (TCEP) was added to each well as a stripping agent. The plates were both incubated with TCEP on ice for 1 hour, followed by washing and resuspending with FACS buffer. 4 μl of 7-Amino-Actinomycin D (7AAD) was added to each well, followed by 10 min incubation on ice before FACS analysis was conducted.

[11] = molecular target: T5, human Ly6e with a myc tag, expressed in HEK293T cells (human, UniProt Q16553 21-101); assay: FACS, HEK293T cells expressing Ly6e, supernatant 1:2
T5 construct: whole, on cells; not shown: myc tag fused on the molecule
T5 sequence (looked up): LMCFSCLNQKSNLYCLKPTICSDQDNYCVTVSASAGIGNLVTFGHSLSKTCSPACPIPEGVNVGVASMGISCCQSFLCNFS

[12] = molecular target: T6, cynomolgus monkey uPAR, cell-bound (cynomolgus monkey, UniProt Q9GK78 23-305); assay: FACS, GeoMean; cynomolgus uPAR expressed on 293T cells; antibody concentration not given
T6 construct: whole, on cells; also called cyno-uPAR
T6 sequence (Q9GK78 23-305): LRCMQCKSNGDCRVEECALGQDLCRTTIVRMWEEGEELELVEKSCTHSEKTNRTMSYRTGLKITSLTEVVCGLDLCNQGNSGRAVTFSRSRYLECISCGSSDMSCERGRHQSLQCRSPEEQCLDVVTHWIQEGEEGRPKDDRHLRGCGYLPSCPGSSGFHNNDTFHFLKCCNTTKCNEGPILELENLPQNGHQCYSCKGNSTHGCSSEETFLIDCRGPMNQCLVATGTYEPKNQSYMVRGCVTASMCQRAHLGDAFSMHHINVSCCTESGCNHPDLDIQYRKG

B1: fully human monoclonal antibody 2.6.1 (ATCC Accession Number PTA-7475) (antibody, V domains shown)
VH: EVQLVESGGGLIQPGGSLRLSCAASGFTVITNYMNWVRQAPGKGLEWVSIIYTGGSTSYADSVKGRFTVSRDNSKNTLYLHMNSLRVEDTAVYYCAREIAVAGYYGMDVWGQGTTVTVS
VL: DIQMTQSPSSLSASVGDRVTITCRASQGIRNDLGWYQQKPGKAPKRLIYAASSLQSGVPSRFSGSGSGTEFTLTISSLQPEDFATYYCLQHNSYPLTFGGGTRVEIK
notes: also called mAb 2.6.1
LA at 80 ng/ml [1]: 3.58
Kd [2]: 0.249 nM
X Geo Mean [3]: 12.9
Kd [4]: 0.249 nM
Kd [5]: 1.09 nM
Kd [6]: 0.57 nM
gCy5 Geo Mean Pos Cells [7]: 455
uPA/uPAR binding Inhibition % [8]: 80%
Kd [9]: 0.57 nM
koff [9]: 4.6e-05 s⁻¹
kon [9]: 81000 M⁻¹ s⁻¹
geo mean cold - TCEP [10]: 44.3
binding result [11]: no binding (tested: GeoMean ratio 1.95)

B2: fully human monoclonal antibody 2.19.2 (ATCC Accession Number PTA-7474) (antibody, V domains shown)
VH: QVQLVESGGGVVQPGRSLRLSCAASGFTFSSYGMHWVRQAPGKGLEWVAVIWYDGSNKYYADSVKGRFTISRDNSKNTLYLQMNSLRAEDTAVYYCARDQHIVVVTAILDYWGQGTLVTVSS
VL: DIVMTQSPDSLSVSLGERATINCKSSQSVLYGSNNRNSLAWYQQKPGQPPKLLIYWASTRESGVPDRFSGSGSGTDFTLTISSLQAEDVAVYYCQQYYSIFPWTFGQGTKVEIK
LA at 80 ng/ml [1]: 2.65
Kd [2]: 0.175 nM
X Geo Mean [3]: 9.55
Kd [4]: 0.175 nM
Kd [5]: 0.346 nM
Kd [6]: 0.31 nM
gCy5 Geo Mean Pos Cells [7]: 445
uPA/uPAR binding Inhibition % [8]: 85%
Kd [9]: 0.31 nM
koff [9]: 4.3e-05 s⁻¹
kon [9]: 140000 M⁻¹ s⁻¹
geo mean cold - TCEP [10]: 42.7
binding result [11]: no binding (tested: GeoMean ratio 1.95)

B3: fully human monoclonal antibody 4.18.1 (ATCC Accession Number PTA-7476) (antibody, V domains shown)
VH: EVQLVESGGGLIQPGGSLRLSCAASGFTVRNNYMNWVRQAPGKGLEWVSVIYTGGSTYYADSVKGRFTISRDNSRNTLYLQMNSLRAEDTAVYYCAREGAVAGFDYWGQGTLVTVSL
VL: EIVMTQFPATLSMSPGERATLSCRASQSVSSSLAWYQQTPGQAPRLLIYGASTRSTGFPARFSGIGSGTEFTLTISSLQSEDFAVYYCQQYGNWPLTFGQGTRLEIK
LA at 80 ng/ml [1]: 2.06
binding result [12]: binds
Kd [2]: 0.446 nM
X Geo Mean [3]: 8.18
Kd [4]: 0.446 nM
Kd [6]: 1.5 nM
gCy5 Geo Mean Pos Cells [7]: 251
uPA/uPAR binding Inhibition % [8]: 75%
Kd [9]: 1.5 nM
koff [9]: 0.00016 s⁻¹
kon [9]: 110000 M⁻¹ s⁻¹
geo mean cold - TCEP [10]: 41.2
binding result [11]: no binding (tested: GeoMean ratio 1.95)
